Laboratory results from patent US20200024322A1 (Eli Lilly, published 2020).
Positions count from the first letter of the chain named.

T1: human GIP receptor (human, UniProt P48546 22-466)
T1 construct: whole, on cells; also called hGIPR; hGIP-R
T1 sequence (looked up): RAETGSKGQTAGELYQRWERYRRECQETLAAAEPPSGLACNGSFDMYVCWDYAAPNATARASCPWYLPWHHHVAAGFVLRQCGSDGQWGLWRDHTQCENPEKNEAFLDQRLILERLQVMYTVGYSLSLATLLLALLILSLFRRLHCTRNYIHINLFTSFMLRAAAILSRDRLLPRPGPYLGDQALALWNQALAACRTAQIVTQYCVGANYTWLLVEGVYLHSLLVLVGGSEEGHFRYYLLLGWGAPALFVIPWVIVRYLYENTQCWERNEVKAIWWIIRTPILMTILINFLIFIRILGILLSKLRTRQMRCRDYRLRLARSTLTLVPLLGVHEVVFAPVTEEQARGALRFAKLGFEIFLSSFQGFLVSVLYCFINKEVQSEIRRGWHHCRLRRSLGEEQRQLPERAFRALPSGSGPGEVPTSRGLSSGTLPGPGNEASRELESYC

B1: Example 213 (peptide)
peptide: YXEGTXTSDYSIXLDEKAQXEFIXYLIEGGPSSGAPPPS
modifications: Aib2; αMeF6; αMeL13; K17((2-[2-(2-Amino-ethoxy)-ethoxy]-acetyl)2-(γ-Glu)-CO-(CH2)16-CO2H); Aib20; D-Glu24; C-terminal NH2
B2: Example 212 (peptide)
peptide: B1 peptide with E16K
modifications: Aib2; αMeF(2F)6; αMeL13; K17((2-[2-(2-Amino-ethoxy)-ethoxy]-acetyl)2-(γ-Glu)-CO-(CH2)18-CO2H); Aib20; D-Glu24; C-terminal NH2
B3: Example 230 (peptide)
peptide: B1 peptide with E16H
modifications: Aib2; αMeF(2F)6; αMeL13; K17((2-[2-(2-Amino-ethoxy)-ethoxy]-acetyl)2-(γ-Glu)-CO-(CH2)18-CO2H); Aib20; D-Glu24; C-terminal NH2
B4: Example 231 (peptide)
peptide: B1 peptide with E16K
modifications: Aib2; αMeF(2F)6; αMeL13; K17((2-[2-(2-Amino-ethoxy)-ethoxy]-acetyl)2-(γ-Glu)-CO-(CH2)16-CO2H); Aib20; D-Glu24; C-terminal NH2
B5: Example 214 (peptide)
peptide: B1 peptide
modifications: Aib2; αMeF(2F)6; αMeL13; K17((2-[2-(2-Amino-ethoxy)-ethoxy]-acetyl)2-CO-(CH2)16-CO2H); Aib20; D-Glu24; C-terminal NH2
B6: Example 215 (peptide)
peptide: B1 peptide
modifications: Aib2; αMeF(2F)6; αMeL13; K17((2-[2-(2-Amino-ethoxy)-ethoxy]-acetyl)2-CO-(CH2)18-CO2H); Aib20; D-Glu24; C-terminal NH2
B7: Example 216 (peptide)
peptide: B1 peptide
modifications: Aib2; αMeF(2F)6; αMeL13; K17((2-[2-(2-Amino-ethoxy)-ethoxy]-acetyl)2-(εK)-CO-(CH2)18-CO2H); Aib20; D-Glu24; C-terminal NH2
B8: Example 217 (peptide)
peptide: B1 peptide with E16X
modifications: Aib2; αMeF(2F)6; αMeL13; Dab16; K17((2-[2-(2-Amino-ethoxy)-ethoxy]-acetyl)2-(γ-Glu)-CO-(CH2)18-CO2H); Aib20; D-Glu24; C-terminal NH2
B9: Example 218 (peptide)
peptide: B1 peptide with E16X
modifications: Aib2; αMeF(2F)6; αMeL13; Dap16; K17((2-[2-(2-Amino-ethoxy)-ethoxy]-acetyl)2-(γ-Glu)-CO-(CH2)18-CO2H); Aib20; D-Glu24; C-terminal NH2
B10: Example 219 (peptide)
peptide: YXEGTXTSDYSIXLDEKAQXEFIXYLIEGGPSSG
modifications: Aib2; αMeF(2F)6; αMeL13; K17((2-[2-(2-Amino-ethoxy)-ethoxy]-acetyl)2-(γ-Glu)-CO-(CH2)16-CO2H); Aib20; D-Glu24; C-terminal NH2
B11: Example 228 (peptide)
peptide: B10 peptide with E16K
modifications: Aib2; αMeF6; αMeL13; K17((2-[2-(2-Amino-ethoxy)-ethoxy]-acetyl)2-(γ-Glu)-CO-(CH2)18-CO2H); Aib20; D-Glu24; C-terminal NH2
B12: Example 220 (peptide)
peptide: YXEGTXTSDYSIXLDEKAQXEFIXYLIEGG
modifications: Aib2; αMeF(2F)6; αMeL13; K17((2-[2-(2-Amino-ethoxy)-ethoxy]-acetyl)2-(γ-Glu)-CO-(CH2)16-CO2H); Aib20; D-Glu24; C-terminal NH2
B13: Example 221 (peptide)
peptide: B1 peptide
modifications: Aib2; αMeF(2F)6; αMeL13; K17((2-[2-(2-Amino-ethoxy)-ethoxy]-acetyl)2-(γ-Glu)-CO-(CH2)16-CO2H); Aib20; D-Glu24; C-terminal NH2
B14: Example 222 (peptide)
peptide: B1 peptide with Y25X
modifications: Aib2; αMeF(2F)6; αMeL13; K17((2-[2-(2-Amino-ethoxy)-ethoxy]-acetyl)2-(γ-Glu)-CO-(CH2)18-CO2H); Aib20; D-Glu24; αMeY25; C-terminal NH2
B15: Example 223 (peptide)
peptide: B1 peptide with X24E, Y25X
modifications: Aib2; αMeF(2F)6; αMeL13; K17((2-[2-(2-Amino-ethoxy)-ethoxy]-acetyl)2-(γ-Glu)-CO-(CH2)18-CO2H); Aib20; αMeY25; C-terminal NH2
B16: Example 224 (peptide)
peptide: B1 peptide
modifications: Aib2; αMeF(2F)6; Aib13; K17((2-[2-(2-Amino-ethoxy)-ethoxy]-acetyl)2-(γ-Glu)-CO-(CH2)18-CO2H); Aib20; D-Glu24; C-terminal NH2

Key:
human GIP receptor = target: T1, human GIP receptor; assay: [125I]-GIP competition SPA, hGIPR membranes
human glucagon receptor = target: T2, human glucagon receptor (human, UniProt P47871 26-477); assay: [125I]-Gcg competition SPA, hGcgR membranes
T2 construct: whole, on cells; also called hGcgR; GcgR

human GLP-1 receptor = target: T3, human GLP-1 receptor (human, UniProt P43220 24-463); assay: [125I]-GLP-1 competition SPA, hGLP-1R membranes
T3 construct: whole, on cells; also called hGLP-1R; hGLP1R
Description: The binding buffer contains 25 mM HEPES, pH 7.4, 2.5 mM CaCl₂, 1 mM MgCl₂, 0.1% (w/v) bacitracin, 0.003% (w/v) TWEEN®-20, and Roche Complete™ Protease Inhibitors without EDTA.
Data are analyzed using four-parameter (curve maximum, curve minimum, IC₅₀, Hill slope) nonlinear regression routines (Genedata Screener, version 12.0.4, Genedata AG, Basal, Switzerland). […] Values for Kᵢ are reported as the geometric mean, with error expressed as the standard error of the mean (SEM) and n is equal to the number of independent replicates (determined in assays performed on different days). Geometric Means are calculated as follows: […]

T2 sequence (P47871 26-477): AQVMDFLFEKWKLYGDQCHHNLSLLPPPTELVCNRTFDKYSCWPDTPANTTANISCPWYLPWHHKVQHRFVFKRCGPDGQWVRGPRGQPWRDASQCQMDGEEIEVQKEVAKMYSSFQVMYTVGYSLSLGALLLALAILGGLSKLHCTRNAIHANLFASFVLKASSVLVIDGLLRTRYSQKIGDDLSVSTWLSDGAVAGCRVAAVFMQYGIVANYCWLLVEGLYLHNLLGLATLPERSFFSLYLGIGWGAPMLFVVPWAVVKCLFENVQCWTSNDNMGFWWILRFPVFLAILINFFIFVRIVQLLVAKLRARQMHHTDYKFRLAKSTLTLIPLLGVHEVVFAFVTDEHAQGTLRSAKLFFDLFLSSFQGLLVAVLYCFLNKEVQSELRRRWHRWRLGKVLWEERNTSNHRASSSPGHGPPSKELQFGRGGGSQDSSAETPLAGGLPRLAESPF

Row | Binder | Ki (human GIP receptor) [nM] | Ki (human glucagon receptor) [nM] | Ki (human GLP-1 receptor) [nM]
1 | B1 | 0.365 | 544 | 2.75
2 | B2 | 0.0978 | 205 | 2.76
3 | B3 | 0.042 | 494 | 4.68
4 | B4 | 0.0394 | 440 | 3.03
5 | B5 | 0.0304 | 126 | 1.99
6 | B6 | 0.0666 | 75.2 | 6.85
7 | B7 | 0.0559 | 45.2 | 2.34
8 | B8 | 0.0376 | 516 | 2.02
9 | B9 | 0.0593 | 270 | 2.54
10 | B10 | 0.0689 | 373 | 2.01
11 | B11 | 0.028 | 182 | 2.43
12 | B12 | 0.0919 | 377 | 2.71
13 | B13 | 0.0414 | 154 | 1.77
14 | B14 | 0.0495 | 71.3 | 3.59
15 | B15 | 0.0921 | 46.5 | 5.62
16 | B16 | 0.0482 | 627 | 6.86
